Measurements reported in patent US6500940 (SALK INSTITUTE FOR BIOLOGICAL STUDIES, dated 2002).
Blank lines part the entries; values can stand above or below the molecule they belong to.

Tests used:
human Fas (human) = human Fas (human) (UniProt P25445); experiment: cell-based or functional assay
human FADD = biological target: T1, human FADD (human, UniProt Q13158 1-208, limits assumed); experiment: co-immunoprecipitation and immunoblot after transient transfection
T1 construct: also called MORT-1
T1 sequence (looked up): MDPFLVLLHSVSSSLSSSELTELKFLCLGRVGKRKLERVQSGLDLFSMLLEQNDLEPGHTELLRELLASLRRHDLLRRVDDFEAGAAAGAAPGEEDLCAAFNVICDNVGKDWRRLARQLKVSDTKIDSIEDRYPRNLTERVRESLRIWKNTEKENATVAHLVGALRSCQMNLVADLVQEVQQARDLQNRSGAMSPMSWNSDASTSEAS
Description: The interaction of LFG with components of the Fas signaling pathway was investigated. Fas and LFG can be co-immunoprecipitated following transient transfection.

Sequence of human Fas (human) (P25445 26-335): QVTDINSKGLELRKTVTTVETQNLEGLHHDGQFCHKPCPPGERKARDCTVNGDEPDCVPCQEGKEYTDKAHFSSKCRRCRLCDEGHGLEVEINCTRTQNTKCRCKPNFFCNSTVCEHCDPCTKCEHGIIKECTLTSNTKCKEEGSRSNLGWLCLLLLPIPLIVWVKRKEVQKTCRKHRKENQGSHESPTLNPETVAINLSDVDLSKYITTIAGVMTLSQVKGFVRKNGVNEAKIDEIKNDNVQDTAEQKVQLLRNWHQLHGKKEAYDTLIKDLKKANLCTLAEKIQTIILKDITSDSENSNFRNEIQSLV

Molecule: mouse anti-human Fas agonistic antibody (CH11)
cell survival of HeLa cells 72 hr after treatment with CH11 (human Fas (human)): 17%

binding result (human FADD): no binding
B1: amino-terminal myc epitope-tagged LFG (myc-LFG) (other, not shown: small tags and cut ends)
chain: MTRGKLSVANKAPGTEGQQQVHGEKKEAPAVPSAPPSYEEATSGEGMKAGAFPPAPTAVPLHPSWAYVDPSSSSSYDNGFPPETMSSSPLSAGMTKKVRRVFVRKVYTILLIQLLVTLAVVALFTFCDPCQGLCSGQPGWYWASYAVFFATYLTLACCSGPRRHFPWNLILLTVFTLSMAYLTGMLSSYYNTTSVLLCLGITALVCLSVTVFSFQTKFDFTSCQGVLFVLLMTLFFSGLILAILLPFQYVPWLHAVYAALGAGVFTLFLALDTQLLMGNRRHSLSPEEYIFGALNIYLDIIYIFTFFLQLFGTNRE
notes: Expressed from an expression vector by transient transfection (HeLa, 293 cells) and found by immunoprecipitation and immunoblot; also called lifeguard
